According to the FLAb antibody collection:

B1: unnamed (protein)
chain 1: QVQLVQSGAEVKKPGSSVKVSCKASGGTFSYYWIEWVRQAPGQGLEWMGEILPGSGTTNPNEKFKGRVTITADESTSTAYMELSSLRSEDTAVYYCARADYYGSDYVKFDYWGQGTLVTVSS
chain 2: DIQMTQSPSSLSASVGDRVTITCKASQHVITHVTWYQQKPGKAPKLLIYGTSYSYSGVPSRFSGSGSGTDFTLTISSLQPEDFATYYCQQFYEYPLTFGGGTKVEIK
B2: unnamed (protein)
chain 1: EVQLVESGGGLVQPGGSLRLSCAASGFTFSSYNMNWVRQAPGKGLEWVSYISSSSSTIYYADSVKGRFTISRDNAKNSLSLQMNSLRDEDTAVYYCARAYYYGMDVWGQGTTVTVSS
chain 2: DIQMTQSPSSVSASVGDRVTITCRASQGISGWLAWYQQKPGKAPKFLIYAASTLQSGVPSRFSGSGSGTDFTLTISSLQPEDFATYYCQQANSFPPTFGGGTKVEIK
B3: unnamed (protein)
chain 1: QVQLVQSGAEVKKPGASVKVSCKASGYIFSNYWIQWVRQAPGQGLEWMGEILPGSGSTEYTENFKDRVTMTRDTSTSTVYMELSSLRSEDTAVYYCARYFFGSSPNWYFDVWGQGTLVTVSS
chain 2: DIQMTQSPSSLSASVGDRVTITCGASENIYGALNWYQQKPGKAPKLLIYGATNLADGVPSRFSGSGSGTDFTLTISSLQPEDFATYYCQNVLNTPLTFGQGTKVEIK
B4: unnamed (protein)
chain 1: QVQLVQSGAEVKKPGASVKVSCKASGYTFTDYYMHWVRQAPGQGLEWMGRVNPNRRGTTYNQKFEGRVTMTTDTSTSTAYMELRSLRSDDTAVYYCARANWLDYWGQGTTVTVSS
chain 2: DIQMTQSPSSLSASVGDRVTITCSVSSSVSSIYLHWYQQKPGKAPKLLIYSTSNLASGVPSRFSGSGSGTDFTLTISSLQPEDFATYYCQVYSGYPLTFGGGTKVEIK
B5: unnamed (protein)
chain 1: QVQLVQSGAEVKKPGASVKVSCKASGYTFTSYDINWVRQATGQGLEWMGWMNPNSGNTGYAQKFQGRVTMTRNTSISTAYMELSSLRSEDTAVYYCARDPYYYYYGMDVWGQGTTVTVSS
chain 2: QSVLTQPPSVSAAPGQKVTISCSGSSSNIENNHVSWYQQLPGTAPKLLIYDNNKRPSGIPDRFSGSKSGTSATLGITGLQTGDEADYYCETWDTSLSAGRVFGGGTKLTVL
B6: unnamed (protein)
chain 1: EVQLVESGGGLVQPGGSLRLSCAASGFDFSRYWMSWVRQAPGKGLEWIGEINPDSSTINYAPSLKDKFIISRDNAKNSLYLQMNSLRAEDTAVYYCARPDGNYWYFDVWGQGTLVTVSS
chain 2: DIQMTQSPSSLSASVGDRVTITCKASQDVGIAVAWYQQKPGKVPKLLIYWASTRHTGVPDRFSGSGSGTDFTLTISSLQPEDVATYYCQQYSSYPYTFGQGTKVEIK
B7: unnamed (protein)
chain 1: QVQLQQSGAELVRPGTSVKVSCKASGYAFTNYLIEWVKQRPGQGLEWIGVINPGSGGTNYNEKFKGKATLTADKSSSTAYMQLSSLTSDDSAVYFCARDGPWFAYWGQGTLVTVSA
chain 2: NIVMTQSPKSMSMSVGERVTLTCKASENVVTYVSWYQQKPEQSPKLLIYGASNRYTGVPDRFTGSGSATDFTLTISSVQAEDLADYHCGQGYSYPYTFGGGTKLEIK
B8: unnamed (protein)
chain 1: EVQLVESGGGLVQPGGSLRLSCAASGYSFTGHWMNWVRQAPGKGLEWVGMIHPSDSETRYNQKFKDRFTISVDKSKNTLYLQMNSLRAEDTAVYYCARGIYFYGTTYFDYWGQGTLVTVSS
chain 2: DIQMTQSPSSLSASVGDRVTITCRASKTISKYLAWYQQKPGKAPKLLIYSGSTLQSGVPSRFSGSGSGTDFTLTISSLQPEDFATYYCQQHNEYPLTFGQGTKVEIK
B9: unnamed (protein)
chain 1: QVQLVQSGSELKKPGASVKVSCKASGYTFTDNNMDWVRQAPGQGLEWMGDINTRSGGSIYNEEFQDRVIMTVDKSTDTAYMELSSLRSEDTATYHCARRKSYGYYLDEWGEGTLVTVSS
chain 2: DIQMTQSPSSLSASVGDRVTITCKASRNIERQLAWYQQKPGQAPELLIYQASRKESGVPDRFSGSRYGTDFTLTISSLQPEDIATYYCQQYSDPPLTFGGGTKVEIK
B10: unnamed (protein)
chain 1: EVQLVESGGGLVQPGGSLRLSCAASGFTFSRYWMSWVRQAPGKGLEWVANIKQDGSEKYYVDSVKGRFTISRDNAKNSLYLQMNSLRAEDTAVYYCAREGGWFGELAFDYWGQGTLVTVSS
chain 2: EIVLTQSPGTLSLSPGERATLSCRASQRVSSSYLAWYQQKPGQAPRLLIYDASSRATGIPDRFSGSGSGTDFTLTISRLEPEDFAVYYCQQYGSLPWTFGQGTKVEIK

Test: patients with anti-drug antibodies; higher = more immunogenic

First: B1
Second: B2
The “patients with anti-drug antibodies” value of the first is higher: 9% for the first, 1% for the second.

First: B3
Second: B4
The “patients with anti-drug antibodies” value of the first is higher: 2% for the first, 0% for the second.

First: B5
Second: B6
The “patients with anti-drug antibodies” value of the first is lower: 0% for the first, 18.5% for the second.

Going from B7 to B8, the “patients with anti-drug antibodies” value falls from 80% to 6.3%.

Going from B9 to B10, the “patients with anti-drug antibodies” value falls from 3.5% to 3.3%.
